For one molecule, KD with pomalidomide results are on record in paper PMC10716131, “Structural and biophysical comparisons of the pomalidomide- and CC-220-induced interactions of SALL4 with cereblon” (Scientific Reports, 2023).

The target of this assay is T1, DDB1:CRBN complex, full-length human CRBN (residues 1–442) with N-terminal biotinylated Avi-tag, co-expressed … (human, UniProt Q96SW2 1-442; Q16531 1-1140, biotin on the Avi-tag (BirA, 100% efficiency)).
T1 construct: cereblon (CRBN), human, full-length, residues 1–442; DDB1, human, residues 1–1140; A 6xGS linker stands between the non-cleavable Avi-tag and CRBN; The host is named (Sf21) only for the crystallisation construct; also called DDB1:N-avi-biotin-CRBN; DDB1:N-avi-CRBN; source: biotinylated with BirA; not shown: Avi-tag, N-terminal, kept
The experiment in a line: SPR; DDB1:N-avi-biotin-CRBN immobilised on a streptavidin sensor (~5000–7000 RU), Biacore 8k, ABA method; SALL4 zinc fingers in 2X dilution series with 5 μM pomalidomide throughout; PBS pH 7.2, 5% glycerol, total NaCl ~300 mM, 0.01% P20, 1 mM TCEP, 0.05% DMSO; 15 °C; 30 µL/minute; 1:1 kinetic modelling. To be noted: both partners purified. For orientation: Surface plasmon resonance follows binding to a sensor surface in real time, without labels.

T1 sequence (Q96SW2 whole entry, chain 1 of 2, the tested form may be a part): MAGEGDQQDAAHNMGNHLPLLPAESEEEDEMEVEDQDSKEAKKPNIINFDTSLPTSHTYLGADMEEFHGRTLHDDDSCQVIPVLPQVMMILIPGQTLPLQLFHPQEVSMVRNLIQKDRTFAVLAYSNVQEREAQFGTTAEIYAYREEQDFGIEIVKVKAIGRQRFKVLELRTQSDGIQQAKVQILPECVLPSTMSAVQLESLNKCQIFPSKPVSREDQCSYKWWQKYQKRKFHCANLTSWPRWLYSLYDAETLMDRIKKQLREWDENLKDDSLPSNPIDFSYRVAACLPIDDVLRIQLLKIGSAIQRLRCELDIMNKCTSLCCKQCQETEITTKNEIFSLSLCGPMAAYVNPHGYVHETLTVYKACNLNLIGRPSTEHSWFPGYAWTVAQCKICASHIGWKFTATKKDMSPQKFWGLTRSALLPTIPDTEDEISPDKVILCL
T1 sequence (Q16531 whole entry, chain 2 of 2, the tested form may be a part): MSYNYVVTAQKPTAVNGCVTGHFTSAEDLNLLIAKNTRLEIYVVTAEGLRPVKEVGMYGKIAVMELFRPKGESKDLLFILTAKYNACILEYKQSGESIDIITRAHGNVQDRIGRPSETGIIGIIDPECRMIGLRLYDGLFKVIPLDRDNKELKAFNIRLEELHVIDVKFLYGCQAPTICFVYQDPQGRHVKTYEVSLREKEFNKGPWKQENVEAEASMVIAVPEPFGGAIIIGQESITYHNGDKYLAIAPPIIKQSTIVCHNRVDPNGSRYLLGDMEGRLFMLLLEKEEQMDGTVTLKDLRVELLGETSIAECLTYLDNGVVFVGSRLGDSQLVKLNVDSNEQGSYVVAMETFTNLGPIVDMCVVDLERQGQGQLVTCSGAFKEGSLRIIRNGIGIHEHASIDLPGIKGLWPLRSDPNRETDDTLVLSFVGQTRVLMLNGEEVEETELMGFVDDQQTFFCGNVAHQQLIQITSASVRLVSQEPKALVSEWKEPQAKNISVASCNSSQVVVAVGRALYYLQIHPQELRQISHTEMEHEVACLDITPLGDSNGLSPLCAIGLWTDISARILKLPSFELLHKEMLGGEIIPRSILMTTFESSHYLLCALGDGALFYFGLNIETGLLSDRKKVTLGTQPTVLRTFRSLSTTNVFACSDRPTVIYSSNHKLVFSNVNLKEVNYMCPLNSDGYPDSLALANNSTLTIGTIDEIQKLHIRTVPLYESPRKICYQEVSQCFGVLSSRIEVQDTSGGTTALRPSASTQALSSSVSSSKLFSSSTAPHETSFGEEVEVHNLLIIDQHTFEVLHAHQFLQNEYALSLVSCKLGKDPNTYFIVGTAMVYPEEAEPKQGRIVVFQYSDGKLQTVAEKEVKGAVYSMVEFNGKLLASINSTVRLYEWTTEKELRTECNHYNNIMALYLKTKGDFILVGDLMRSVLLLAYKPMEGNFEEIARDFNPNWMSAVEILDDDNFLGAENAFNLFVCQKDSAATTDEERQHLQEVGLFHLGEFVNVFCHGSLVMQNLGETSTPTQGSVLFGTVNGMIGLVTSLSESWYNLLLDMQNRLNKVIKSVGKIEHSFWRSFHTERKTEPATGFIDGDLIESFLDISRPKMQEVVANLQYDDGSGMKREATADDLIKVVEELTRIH

B1: Human SALL4 ZF1(370–409) (domain or fragment, UniProt Q9UJQ4 370-409, looked up)
chain: DVKPKDEAALYKHKCKYCSKVFGTDSSLQIHLRSHTGERP
notes: not shown: Twin-Strep-ZZ, N-terminal, cleaved
For the molecule B1, the KD with pomalidomide is greater than 50 µM.
